The target in series [1] is T1, full-length UVR8 (UV … LOCUS8) (Arabidopsis thaliana), Q9FN03.
T1 chain: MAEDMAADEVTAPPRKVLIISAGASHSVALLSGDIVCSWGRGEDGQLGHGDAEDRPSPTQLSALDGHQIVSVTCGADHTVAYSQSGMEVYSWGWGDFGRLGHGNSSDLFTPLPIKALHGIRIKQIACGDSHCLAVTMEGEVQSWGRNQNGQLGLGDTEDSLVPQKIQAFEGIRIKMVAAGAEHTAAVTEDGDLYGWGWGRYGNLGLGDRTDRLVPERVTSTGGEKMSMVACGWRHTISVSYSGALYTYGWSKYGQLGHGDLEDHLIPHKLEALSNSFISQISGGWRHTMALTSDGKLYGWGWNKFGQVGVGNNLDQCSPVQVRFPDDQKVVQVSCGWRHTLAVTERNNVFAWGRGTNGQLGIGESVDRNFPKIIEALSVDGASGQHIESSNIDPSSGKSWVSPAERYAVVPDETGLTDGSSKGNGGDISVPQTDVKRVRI
The series can be described thus: native MS; native ion mobility MS with nESI, sample in 250 mM ammonium acetate pH 6.8, 5–20 μM UVR8, in the absence of UV-B light. The following applies: remark: other sources report otherwise.

Series [2] concerns the molecule itself. The series is described as above.

By stoichiometry N is commonly meant a count of units in the complex or per binding partner.

B1: full-length UVR8 (UV … LOCUS8), Q9FN03 1-440 (natural protein)
chain: MAEDMAADEVTAPPRKVLIISAGASHSVALLSGDIVCSWGRGEDGQLGHGDAEDRPSPTQLSALDGHQIVSVTCGADHTVAYSQSGMEVYSWGWGDFGRLGHGNSSDLFTPLPIKALHGIRIKQIACGDSHCLAVTMEGEVQSWGRNQNGQLGLGDTEDSLVPQKIQAFEGIRIKMVAAGAEHTAAVTEDGDLYGWGWGRYGNLGLGDRTDRLVPERVTSTGGEKMSMVACGWRHTISVSYSGALYTYGWSKYGQLGHGDLEDHLIPHKLEALSNSFISQISGGWRHTMALTSDGKLYGWGWNKFGQVGVGNNLDQCSPVQVRFPDDQKVVQVSCGWRHTLAVTERNNVFAWGRGTNGQLGIGESVDRNFPKIIEALSVDGASGQHIESSNIDPSSGKSWVSPAERYAVVPDETGLTDGSSKGNGGDISVPQTDVKRVRI
B1 showed a stoichiometry N in series [1] of 2.

B2: UVR8 core domain (residues 12–381, UVR8^12–381) (domain or fragment, Arabidopsis thaliana, UniProt Q9FN03 12-381, looked up)
chain: APPRKVLIISAGASHSVALLSGDIVCSWGRGEDGQLGHGDAEDRPSPTQLSALDGHQIVSVTCGADHTVAYSQSGMEVYSWGWGDFGRLGHGNSSDLFTPLPIKALHGIRIKQIACGDSHCLAVTMEGEVQSWGRNQNGQLGLGDTEDSLVPQKIQAFEGIRIKMVAAGAEHTAAVTEDGDLYGWGWGRYGNLGLGDRTDRLVPERVTSTGGEKMSMVACGWRHTISVSYSGALYTYGWSKYGQLGHGDLEDHLIPHKLEALSNSFISQISGGWRHTMALTSDGKLYGWGWNKFGQVGVGNNLDQCSPVQVRFPDDQKVVQVSCGWRHTLAVTERNNVFAWGRGTNGQLGIGESVDRNFPKIIEALSVDG
notes: Homodimer in the dark, monomer after UV-B; also called truncated UVR8; source: E. coli Rosetta 2 (DE3) pLysS, purified (Ni-NTA, Strep-Tactin XT, cleaved from the resin with SUMO protease); not shown: 7xHis, N-terminal, cleaved; Strep II, N-terminal, cleaved; SUMO, N-terminal, cleaved
Regarding B2, the “stoichiometry N” value in series [2] came to 2.
